Experimental data taken from the DeepSol protein solubility set.

Experiment: soluble on expression in E. coli; label from the status in PepcDB or PDB records

Sequence | soluble on expression in E. coli
MLFNSFQAKIDPSLADLFRNSDKEPFPAMTHELPPEKSLKARLLEQEDERISNVLAHEKRFSTEPVVIDDVFMSRLCVDSQPGCSRIPDIDIANVFRDDLESCTLSSSEDEEEEEEPIGQISTFEMLHAPRKPIVWSEQELSDFDMKSRLLDMRMDHWDLARIANVPKRIAKGETVNLRMPRYSAEVVKQRIAKGVTDIFGHFSLVPHTLTKSHKPVAERKQILIERYHDLMNDFDYATRPGSVESKKYANLTKRLNLCNDFLSAPKLPHRLFPRLIIRSIRPPETPKEPVKRKMRESESDDSVIIIPRKIEKEKPRPTTENVVLKKVEMEKKRPRSPELVPKKIVMEKERPSSPDSEAEEREHNLRIEKERHQKELEFRREALRKREQEREEHKKRAQEELRRQMTAALEESTRRQAEMNRQIEDEARKRDELQRIAEEKKRKQLLEDQCRAKQEKEKRDAEELEQMRLNIARLAGTKDVENALKSPSLVEIVPPSDARAFEMIKWNAVKCKIPENWEKRKDKFYRVFEWPSDAAQRDIERDEVVSIPRSKPIVIPQEDTYITRNRIPLKLPPKVKQAVPALVVRNSNNATRTVVAATVNENGIQWPAETINIDEVVREIRGLMAPTRRNFAISLSPKTDEIDYQAINLNRLKSGIVYPFYFSDGLYWPLVFLKSSKNGKPEAQRHVEALTSCKSFSGKYASRYLLTTTKEEDSATKKFEDAYADSDGDWADYSTKPGRFSNRAGFKPHYDTSNDSFEVQKQRAVDSLNSQYEKERNELDAFGRYTDEYRKRKDRAQYQNHIKTHLRELVRDARLDAFSFKEEFKDFEGGFEDYPGTRVEPYENDWYSHGYTLYSHTRDAAYADYMHDVCKPYEDMLPPTEYHEIFNEWCFTPMLASLHYQLKKNAFDVLSPQDVKDMEARHRKYIGLVQKERKFSLEQALDVCKLTDYDKRQWTILHDQLVTHFKDFPSISGLVYDRNTNLLANVNRNLKHLFSTIYRDDSPPDDQF | soluble
MNRYRKILVAGIIDQEEQPALKRALDIANRTTKPSEITLFCTTYDFSYEMTSMLSADERMAMRNGVVSQKVKMLNDVIADYSKSDHVTITIKVVWHNRPYEAIINEIFDDSYNILIKATRQHAKLETVFFTPTDWHLLRKSPIPVLLVKERPWPENGNILASVHVGSENPAHLQLNDKMVDEAIYFAEVLNSTPHLVNAYPSTPPSIHVELPEFNAVQYKDAIRGHHLTQMKALRQKYGIPEEQTHVYEGPTEEVISEVEDELTAGLVILGTTGRTGLSAIFIGNTAENTLDLLNCDILALKPDGYISPLDPNHIS | not soluble
MGDVVADALEKLSADQIEQFRKYFNMFDKEGKGYIRATQVGQILRTMGQAFEERDLKQLIKEFDADGSGEIEFEEFAAMVANFVVNNENDEGLEEELREAFRLYDKEGNGYINVSDLRDILRALDDNVSEEELDEMIAEIDADGSGTVDFDEFMEMMSGE | soluble
PIVLFPGQQATLSPQGISSPSPFDHTAITAWLRNQLVFYDTPLAEVVDTLNRHRHGRIFITNQKLKALKVSGVFSTDEPDTALDVMINTLPIHLLRLTDYLVLI | not soluble
METSIFDDVETRIDNNEIIAQQHAEDLFELYLKIQNAEKDSVIDIRKEASADHEEMLCELRNDLSQVMKMGMVNLSMQIIAQERNNRRKVNQHIINIKSKTEEIDKFFQRAISVLGAPPGYPAKKEEKAKTKNYLIQFGEVLLSISTMVTNLEQSLACYELKEVLMNGMISQIRTQISDFNKVIPNFKRILNSENQEIDPDNYEKFVDMKKRLFAMVNCLHLISEKRGEMNRLIEEKMNLSMPQFQNLQISNGT | not soluble
GPGSMWVCGEAVLMRALNLLHARVRRCMRFSCRIPPQYCECPCRRMRVCPLRRDVSLIVLLFGLTPTTFSFSATSHDASRTKATRTHTHTHTPLFPARPMGSPLIAVIGPNPAFQKTLALDELRVDEVNRAATVHSYTGGKGTNFCRASACCKESPHFCRTTLHTFVGGKTGERVIDLLHQEGIAVYPVTVPAETRTCITCLDTQNSTMTELIEPSAAVPDDAAKDMDRALLKALEHAGGMAIMGSLPDGSSPDLYTRWTEMAAAAQKPVLIDAVKGIEASLKVPGVHSILKVNMRELNKLTGQSTPESAFEYAMQMWTVRVLAVTDGPRSAYIQERGQPLQVVHIPKVDGVVSPLGAGDTADAIFLAKYIHGTTPVEAFRLALAAASANCLQKEAGVFAQHEMRRIADGITIGSSRPHSSSNTRA | not soluble
SKSNLEYSFSNILKNIFSPIREKESVKKVIYYSIPIALTTASYRLVNDLDGIFILSMLGAYDNGVYGY | not soluble
MINFDNFKKYQESFGYMAQQLCFPEKLTFHPKTFEETISKDHPAYEDLVAFRNVMMTFSLSEIKAIYTDTFDFTKKAPLYMTYNKFDTQKERGQMLAKLKVLYEMFGLEMVDNELSDYLPLMLQFLQVAEWRNDPRAEENIQLIIMIIEDGTYVMANALGEDNNPYAYVIQALRKTLKLCLTSPKGVKHHA | not soluble
MKMATDDHQPPMVRGRRIKLKYAHAGGYNPPIVVIHGNMVRELPDSYKRYLMNYFRKSLEIMGTPIRINFQNSENPFENRANKLTLSQERKRKRMMSVVKNRKK | not soluble
MLRLRTPSRIHITLIDLNGSIGRVDGGVGLALEEPHIEIKAKESETFVLKGEPINRERFEIAAAKMAEYCGRGAEIEVVSDYDAHVGLGSGTQISLAVGRAFSELYGLNLTTRQIAEIMGRGGTSGIGVAVFDHGGLVVDGGHSTKEKKSFLPSSASRAKPAPMIARLDFPDWNVVLAIPDLKGFFGEREVNLFQKSCPVPLEDVREICHLILMKMLPAVVEADLDEFGKALKRIQELGFKKAEVEQYGELIKGCFDLADCIGMSSTGPTVYAITDSNAGGIERSLRDYFAEKGYECRTIVTKARNRGVEIEV | not soluble
MSTKVKKTTQLKQMLNSKDLEFIMEAHNGLSARIVQEAGFKGIWGSGLSVSAQLGVRDSNEASWTQVVEVLEFMSDASDVPILLDADTGYGNFNNARRLVRKLEDRGVAGACLEDKLFPKTNSLHDGRAQPLADIEEFALKIKACKDSQTDPDFCIVARVEAFIAGWGLDEALKRAEAYRNAGADAILMHSKKADPSDIEAFMKAWNNQGPVVIVPTKYYKTPTDHFRDMGVSMVIWANHNLRASVSAIQQTTKQIYDDQSLVNVEDKIVSVKEIFRLQRDDELVQAEDKYLPKN | soluble
MDEEMLIPEEEYQKSGVHIGTQVKSSDMKPYIFKIRNDGLYILDVKKTNSKLIVAGKMLARFEPQDILVVAQRQYAFRPVAKFAEVTGATAITGRFNPGTLTNPSLKFYKEVKVIIVTDPLADVQAMKEAVKIGIPIIALCDANNKTDFVDLIIPTNNKGRRSLAVIYWLLAREILKNRGTITSYDQFKYTIDDFEAQI | not soluble
MKTVTARPLTAEAFAPYGSVADISELENLVSLADAYEGTGEAKTPVLQLVQAKAMSGSPVISQMEIHPFSSQTFLPLDQSSSLIVVCEAGEDGMPDESTIKAFLASPSQIVTYRHGVMHHRLTPLAPSGRFAMTMWQTGRGGDTVLYPLHTPVSVDISDITP | not soluble
MKPLLLSRRTHQKPGNYASGRGFPSSTRYIEDVQWLLKEFEPFVRVSADLPFVKARDIALIRSELEKKKPASLEVCLLEHHHHHH | not soluble
MLNYELELWEKGLLVAGVDEAGRGPLAGPVVAAAVILPPFTEPFIKGDSKKLTKKEREEAYEEIKNKALAVGTAVVDSAVIDRVNILRATKLAMKRALKDLKYHYDIVITDYVKLEGENCMPLVKGDEKSLNCACASIIAKVIRDKIMEIYHKIYPDFNFASNKGYPSKTHLEKVEKGEYTEIHRKSFSPLKKKLF | soluble
MESFQTIVDNEVLMESCGIQQESKIKNFPWAVSFTVDGVNRLGGSIISPYHIITAAHGFITTIGSRGNLCENKNWKKPNSSIYRSIKFLRDTRKVAYGGTCIRGHTDKYPNDPRCKKSDVIHNKVRAVLVDGEFASSNCLKGHDWAIVEVEKRIHFSENVRPICLPRPNMYYTKSLAVPGWGRIFNESGPLIHEIPMRIDRDCKRPWSDRLPADADDFICATSMNVSNYSAPRTCHGDSGGGLEYRDDNYGRAFLIAITSFGTRGCPSNMLARFTRVDMYLNLICNYTGVCY | not soluble
